# Entries after “also recorded” stand apart in the source; their conditions may differ. Square brackets hold non-standard residues; d marks the D form. Side chains are listed from the residue outwards. Ends that are not written are not given here. maleimide = maleimide: 4-arm PEG5k maleimide reacting with the C-terminal Cys thiol
# Columns and labels:
# [1] = In vivo safety analysis in healthy mice; design: species or system C57BL/6 mice; settings: intravenous
# Method: For evaluating the toxicity of peptides in vivo, 6 week old healthy mice were intravenously injected with AHP‐DRI‐12 and PEG‐tAHP‐DRI (0.2 µg g^–1 AHP‐DRI‐12). After 2 and 15 days, mice were sacrificed and serum samples were collected for the biochemical analysis (ALT, AST, BRU, and URE). Tissue samples from various organs were collected for tissue sections. The tissue sections were analyzed by H&E staining and immunohistochemistry analysis.
# [2] = tested on: HUVECs; test: Co-culture of TCs and HUVECs, TC-induced HUVECs necroptosis; format: cell-based, human; settings: co-culture with GFP-B16F10, GFP-SGC-996, GFP-LLC1 for 24 h; peptides 1 × 10^–6 M; Hoechst 33342/EthD-III staining; n = 3
# Method: For co‐culture experiment, HUVECs (1 × 10^5) were cultured for 24 h in six‐well plates and 5 × 10^4 GFP‐expressing TCs (GFP‐B16F10, GFP‐SGC‐996, and GFP‐LLC1) were added alone or in the presence of the indicated substances onto the HUVECs monolayer and cultured for 24 h: peptides (1 × 10^–6 M), Nec‐1 (30 × 10^–6 M), and zVAD (100 × 10^–6 M). Then, cells were stained with Hoechst 33342 and EthD‐III, and observed by fluorescence microscope. Cell number was determined by counting Hoechst‐33342‐positive cells, and cell death was determined by counting EthD‐III‐positive nuclei.^[ ^9 ^]
# [3] = Peptides stability in 25% rat serum; format: in vitro ADME; settings: FITC-labeled peptides, 25% fresh rat serum, 37 °C, 0, 4, 8, 24, 48, 96 h; acetonitrile/0.1% TFA precipitation; microplate reader; n = 3
# Method: FITC‐labeled peptides were added into 25% rat serum and incubated at 37 °C. After incubation at 0, 4, 8, 24, 48, 96 h, 100 µL solution was collected and acetonitrile (containing 0.1% TFA) was added to precipitate the protein in the serum. The serum samples were incubated at 4 °C for 20 min and then centrifuged at 12 000 rpm for 10 min. A total of 20 µL supernatant was measured by a microplate reader.
# [4] = Biodistribution, ex vivo fluorescence imaging of organs; format: in vivo; settings: Cy7-labeled peptides, intravenous, mice
# Method: To quantify the biodistribution, mice were intravenously injected with Cy7‐labeled peptides. Mice were sacrificed at 6, 12, and 24 h after injection. All organs were harvested and subjected to ex vivo fluorescence imaging.
# [5] = tested on: 4T1 orthotopic tumor model; test: Spontaneous lung metastasis of 4T1 orthotopic breast tumor model; format: in vivo, Balb/c female mice; settings: intravenous, 0.2 µg g^–1 AHP-DRI-12, every 2 days, 14 times; sacrificed day 30
# Method: The spontaneous lung metastasis of orthotopic breast tumor model was established via injection of 4T1 cells into the fourth inguinal mammary gland of Balb/c female mice. The mice were intravenously injected with saline, AHP‐DRI‐12, and PEG‐tAHP‐DRI (0.2 µg g^–1 AHP‐DRI‐12), respectively, every 2 days for total of 14 times. Mice were sacrificed on day 30 and their lungs were collected for observation and histological analysis.
# [6] = Pharmacokinetic study after intravenous injection; format: in vivo; settings: SD rats, FITC-labeled
# Method: To investigate the pharmacokinetic profile of AHP‐DRI‐12 and PEG‐tAHP‐DRI, SD rats were intravenously injected with FITC‐labeled AHP‐DRI‐12 and PEG‐tAHP‐DRI and blood samples were collected at 0.5, 1, 2, 4, 6, 24, 30, 48, 54, and 72 h. The DR6‐targeting peptide level of blood samples was measured by a microplate reader.
# [7] = tested on: RIPK1, RIPK3, MLKL and their phosphorylated states in HUVECs; test: Western blot of necroptosis pathway proteins; format: cell-based, human; settings: 24 h, 0.1, 1.0, 10 × 10^–6 M AHP-DRI-12
# Method: Western blot assay was conducted to examine the expression level of RIPK1, RIPK3, MLKL, and their phosphorylated states that were downstream protein of DR6. Briefly, 5 × 10^5 HUVECs were added in six‐well plates and grown overnight. Next day, HUVECs were treated with TSZ, AHP‐DRI‐12, and PEG‐tAHP‐DRI (0.1 × 10^–6, 1.0 × 10^–6, 10 × 10^–6 M AHP‐DRI‐12), respectively. After incubating for 24 h, HUVECs were washed with PBS, harvested, and mixed with 150 µL cell lysate buffer/well (Beyotime, China). Protein samples were collected after incubation at 4 ℃ for 30 min. Protein samples were centrifuged at 4 °C and 12 000 rpm for 10 min, and the supernatant was collected as samples. Each sample was then separated by 12% SDS–PAGE, followed by transferring to polyvinylidene difluoride membranes. Finally, samples were incubated with antibodies. HRP‐labeled secondary antibodies were added and measured using an imaging system.
# [8] = healthy C57BL/6 mice, day 2 or 15
substance,measurement,setting,value
PEG-tAHP-DRI: tetra-(D-retro-inverso isomer of AHP-12) substitued 4-arm PEG5k ([dP][dT][dT][dA][dD][dI][dT]C([maleimide-4‑arm PEG5k]); also: four peptides on one 4-arm PEG5k),"apoptotic cells in tissues, TUNEL staining",[1]; [8],no obvious increase in apoptotic cells
same,"damage to vessels, CD31 staining",[1]; [8],could not cause damage to the vessels
same,"downstream signaling pathway of DR6 (p-RIPK1, p-IκB-α, caspase 8 staining)",[1]; [8],could not be impacted
same,"damage to liver or kidney, blood biochemical indexes (ALT, AST, BRU, URE)","[1]; healthy mice, 0.2 µg g^–1 AHP-DRI-12, sacrificed day 2 or day 15",could not cause any damage to liver or kidney
same,inhibition of TCs-induced HUVECs necroptosis,[2],strongest potent inhibitory effect on HUVECs necroptosis; also recorded: much less amount of necroptotic HUVECs
same,degradation in 25% rat serum (proteolytic stability),[3],obviously enhanced proteolytic resistance
same,distribution in kidney and liver after 12 h,[4],much higher distribution in kidney and liver
same,"distribution intensity within 6 h, compared with AHP-DRI-12",[4],much lower distribution intensity
same,organ accumulation within 6 h after injection,[4],accumulate mostly in kidney and slightly in liver
same,spontaneous metastasis to lungs,[5],efficiently restrain spontaneous metastasis to lungs
same,half-life (T1/2),"[6]; blood samples 0.5-72 h, microplate reader, n = 3",11.1 h
same,area under the curve (AUC0-72),[6]; compared with AHP-DRI-12,significantly larger
same,"native activation of necroptosis pathway (expression levels of p-RIPK1, p-RIPK3, p-MLKL)",[7],could not initialize necroptosis pathway

# Source: PMC8188212, “Multi‐Arm PEG/Peptidomimetic Conjugate Inhibitors of DR6/APP Interaction Block Hematogenous Tumor Cell Extravasation” (Advanced Science, 2021)
